This note sets out measurements from patent publication US20120288507A1 (Amgen, published 2012).

The target in test [1] is T1, biotinylated recombinant human WISE (human, UniProt Q6X4U4 24-206, biotinylated (site not stated)).
T1 construct: Same protein as m1, biotinylated; Used in the AlphaScreen with LRP6, in phage panning and on the Octet streptavidin biosensors; also called biotinylated huWise; biotinylated human WISE
T1 sequence: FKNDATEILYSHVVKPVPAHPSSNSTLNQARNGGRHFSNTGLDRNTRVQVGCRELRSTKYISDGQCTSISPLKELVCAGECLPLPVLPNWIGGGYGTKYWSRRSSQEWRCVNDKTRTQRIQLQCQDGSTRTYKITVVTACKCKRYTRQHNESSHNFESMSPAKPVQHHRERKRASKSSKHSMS
Put plainly: Octet QK, crude conditioned medium, streptavidin biosensors with biotinylated human WISE. How it is done: Affinity maturation was performed on D14 IgG2 in order to improve the inhibitory activity. Every residue in all CDRs of heavy chain (31 positions) and light chain (29 positions) was mutated by randomized mutagenesis. Seven heavy chain mutations in 5 positions and ten light chain mutations in 6 positions that improved the binding to human WISE were identified by affinity measurement on Octet QK (ForteBio) using crude condition medium samples and streptavidin Biosensors coated with biotinylated human WISE. L34, L36, H66 and H127 were four top single-residue mutants. Beneficial heavy chain mutation and light chain mutation were paired in matrix by transient transfection in 293 6E cells to yield further improved double mutants (DM, one mutation in heavy chain and one in light chain). Ten DM mutants were selected. Two best heavy chain mutations (H66 and H127) were combined by overlapping PCR. The resulted heavy chain with double mutations was paired with L34 or L36 to yield two triple mutants (TM1 and TM2).

In test [2] the target is T2, human WISE (human, UniProt Q6X4U4 24-206).
T2 construct: Recombinant protein secreted from mammalian cells; also called hWISE; huWISE
T2 sequence: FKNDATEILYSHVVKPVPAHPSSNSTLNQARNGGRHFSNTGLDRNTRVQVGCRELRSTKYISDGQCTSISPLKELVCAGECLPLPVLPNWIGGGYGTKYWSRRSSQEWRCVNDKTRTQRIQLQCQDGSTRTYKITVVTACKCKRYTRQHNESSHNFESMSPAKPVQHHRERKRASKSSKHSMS
Put plainly: murine hybridoma antibodies; assay not given.

Test [3] deals with T3, human WISE N112A (human, UniProt Q6X4U4 24-206).
T3 construct: Alanine mutant of loop 2, used as supernatant of transiently transfected mammalian cells
T3 chain: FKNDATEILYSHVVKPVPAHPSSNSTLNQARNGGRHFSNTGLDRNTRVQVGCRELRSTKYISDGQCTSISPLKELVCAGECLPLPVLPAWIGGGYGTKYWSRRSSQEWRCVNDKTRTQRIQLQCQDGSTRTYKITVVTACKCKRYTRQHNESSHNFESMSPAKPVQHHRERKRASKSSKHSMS
Put plainly: capture ELISA, WISE mutant supernatant (FIG. 25). How it is done:
(§1) Relative capture of individual WISE mutant proteins or wild type proteins by either neutralizing antibodies or non-neutralizing antibodies was compared to assess whether any of these single amino acid changes affects the binding of an antibody to WISE protein. The bound WISE proteins were then detected using HRP-conjugated affinity-purified polyclonal antibody against WISE.
(§2) Purified anti-WISE antibodies (0.5 ug/ml) were added onto high-binding ELISA plates pre-coated with 1 ug/ml of goat anti-mouse IgG Fc (Pierce). Plates were incubated for 1 hour in room temperature. Plates were then washed 4× with Wash Buffer. Subsequently alanine scanned WISE loop-2 mutant supernatants from transient transfection cultures (100× diluted) were added and incubated for 1 hour in room temperature. After 4× wash, rabbit anti-WISE Pab-biotin (50 ng/ml)+NeutrAvidin-HRP (Pierce, Cat #31001) were added onto the plates and incubated for 1 hour in room temperature. Plates were again washed 4× with Wash Buffer. Binding was analyzed using 1-Step Ultra TMB-ELISA substrate (Pierce; Cat #34028) according to the manufacturer's instructions.

In test [4] the target is T4, human WISE I114A (human, UniProt Q6X4U4 24-206).
T4 construct: Alanine mutant of loop 2, used as supernatant of transiently transfected mammalian cells
T4 chain: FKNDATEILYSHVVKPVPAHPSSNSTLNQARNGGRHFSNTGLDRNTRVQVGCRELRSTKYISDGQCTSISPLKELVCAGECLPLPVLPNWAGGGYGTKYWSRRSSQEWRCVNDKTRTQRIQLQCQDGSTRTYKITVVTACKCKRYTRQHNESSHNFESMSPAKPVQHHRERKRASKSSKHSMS
Put plainly: capture ELISA, WISE mutant supernatant (FIG. 25). The method, then:
as §1, §2

Test [5] addresses T5, human WISE G115A (human, UniProt Q6X4U4 24-206).
T5 construct: Alanine mutant of loop 2, used as supernatant of transiently transfected mammalian cells
T5 chain: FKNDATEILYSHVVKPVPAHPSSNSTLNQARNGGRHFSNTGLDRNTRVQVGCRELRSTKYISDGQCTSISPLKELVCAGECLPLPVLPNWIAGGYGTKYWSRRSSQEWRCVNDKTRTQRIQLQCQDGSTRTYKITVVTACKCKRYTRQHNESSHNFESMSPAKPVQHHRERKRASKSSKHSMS
Put plainly: capture ELISA, WISE mutant supernatant (FIG. 25). The method, then:
as §1, §2

The target of test [6] is T6, human WISE K121A (human, UniProt Q6X4U4 24-206).
T6 construct: Alanine mutant of loop 2, used as supernatant of transiently transfected mammalian cells
T6 chain: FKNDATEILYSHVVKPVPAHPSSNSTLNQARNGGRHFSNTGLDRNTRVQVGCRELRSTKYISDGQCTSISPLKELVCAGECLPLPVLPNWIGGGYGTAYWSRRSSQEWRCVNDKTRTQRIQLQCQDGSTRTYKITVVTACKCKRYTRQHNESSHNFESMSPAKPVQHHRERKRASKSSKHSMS
Put plainly: capture ELISA, WISE mutant supernatant (FIG. 25). The method, then: as §1, §2

For test [7], the target named is T2, human WISE. Put plainly: capture ELISA binding profile (FIG. 26). How it is done:
as §1, §2

Test [8] has as its target T3, human WISE N112A. Put plainly: capture ELISA, WISE mutant supernatant (FIG. 26). The method, then: as §1, §2
The target in test [9] is T4, human WISE I114A. Put plainly: capture ELISA, WISE mutant supernatant (FIG. 26). The method, then: as §1, §2
In test [10] the target is T2, human WISE. Put plainly: capture ELISA binding profile (FIG. 23). How it is done:
as §1, §2

The target in test [11] is T5, human WISE G115A. Put plainly: capture ELISA, WISE mutant supernatant (FIG. 23). How it is done:
as §1, §2

Test [12] addresses T7, human WISE G117A (human, UniProt Q6X4U4 24-206).
T7 construct: Alanine mutant of loop 2, used as supernatant of transiently transfected mammalian cells
T7 chain: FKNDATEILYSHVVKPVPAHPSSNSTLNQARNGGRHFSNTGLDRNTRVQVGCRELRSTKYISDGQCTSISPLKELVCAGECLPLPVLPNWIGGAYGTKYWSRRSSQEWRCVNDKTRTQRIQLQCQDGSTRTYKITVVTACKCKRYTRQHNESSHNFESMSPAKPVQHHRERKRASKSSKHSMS
Put plainly: capture ELISA, WISE mutant supernatant (FIG. 23). How it is done:
as §1, §2

Test [13] deals with T2, human WISE. Put plainly: capture ELISA binding profile (FIG. 24). The method, then:
as §1, §2

Test [14] addresses T5, human WISE G115A. Put plainly: capture ELISA, WISE mutant supernatant (FIG. 24). How it is done: as §1, §2
In test [15] the target is T7, human WISE G117A. Put plainly: capture ELISA, WISE mutant supernatant (FIG. 24). The method, then:
as §1, §2

B1: D14 IgG2 single-residue mutant L34 (antibody, V domains shown)
VH: EVQLLESGGGLVQPGGSLRLSCAASGFTFSLYTMQWVRQAPGKGLEWVSGIGSSGGGTSYADSVKGRFTISRDNSKNTLYLQMNSLRAEDTAVYYCARGVSSWFFEYWGQGTLVTVSS
VL: QYELTQPPSVAVSPGKTASITCAGDELGGKYAAWYQQKPGQAPVLVVYDDSDRPSGIPERFSGSNSGNTATLTISRVEAGDEADYYCQVWDRSSYHVVFGGGTKLTVLG
notes: L34 is a mutant label, not a residue number; Tested as crude conditioned medium; also called L34(LC CDR1-7G)
Consider B1, for which the binding result in [1] is recorded as “binds”.

B2: D14 IgG2 single-residue mutant H66 (antibody, V domains shown)
VH: EVQLLESGGGLVQPGGSLRLSCAASGFTFSLYTMQWVRQAPGKGLEWVSGIGSSGGPTSYADSVKGRFTISRDNSKNTLYLQMNSLRAEDTAVYYCARGVSSWFFEYWGQGTLVTVSS
VL: QYELTQPPSVAVSPGKTASITCAGDELGNKYAAWYQQKPGQAPVLVVYDDSDRPSGIPERFSGSNSGNTATLTISRVEAGDEADYYCQVWDRSSYHVVFGGGTKLTVLG
notes: H66 is a mutant label, not a residue number; Tested as crude conditioned medium; also called H66(HC CDR2-8P)
With B2, the binding result in [1] is reported as “binds”.

B3: D14 IgG2 single-residue mutant H127 (antibody, V domains shown)
VH: EVQLLESGGGLVQPGGSLRLSCAASGFTFSLYTMQWVRQAPGKGLEWVSGIGSSGGGTSYADSVKGRFTISRDNSKNTLYLQMNSLRAEDTAVYYCARGVSGWFFEYWGQGTLVTVSS
VL: QYELTQPPSVAVSPGKTASITCAGDELGNKYAAWYQQKPGQAPVLVVYDDSDRPSGIPERFSGSNSGNTATLTISRVEAGDEADYYCQVWDRSSYHVVFGGGTKLTVLG
notes: H127 is a mutant label, not a residue number; Tested as crude conditioned medium; also called H127(HC CDR3-4G)
Regarding B3, in test [1], the binding result is reported as “binds”.

B4: D14-L36 (antibody, human IgG2, lambda, V domains shown)
VH: EVQLLESGGGLVQPGGSLRLSCAASGFTFSLYTMQWVRQAPGKGLEWVSGIGSSGGGTSYADSVKGRFTISRDNSKNTLYLQMNSLRAEDTAVYYCARGVSSWFFEYWGQGTLVTVSS
VL: QYELTQPPSVAVSPGKTASITCAGDELGSKYAAWYQQKPGQAPVLVVYDDSDRPSGIPERFSGSNSGNTATLTISRVEAGDEADYYCQVWDRSSYHVVFGGGTKLTVLG
notes: Tested as crude conditioned medium; also called L36(LC CDR1-7S); LC-CDR1-7 N->S
Take B4: the binding result in test [1] was “binds”.

B5: Ab-AD (antibody, V domains shown)
VH: EVQLQQSGTVLARPGASVKMSCKASGYTFTSYWMHWVKQRPGQGLEWIVAIYPGNSDTNYNQKFKGKAKLTAVTSTSTAYMELNSLTNEDSAVYYCVRGFITAPYFDYWGQGTTLTVSS
VL: DIQMTQSPASLAASVGESITITCQASENIYFSLAWYQQKQGRSPQLLIYHAKSLEDGVPSRFSGSGSGTQYSMKINSMQPEDTATYFCKQAYDHPFTFGTGTKLEMK
notes: Murine monoclonal antibody from hybridoma
With B5, the binding result in test [2] is “binds”.

B6: Ab-AA (antibody, V domains shown)
VH: EVQLQQSGAELVRSGASVKLSCTASGFNIKDYYIHWMKQRPEQGLEWIGWIDPENGDTESAPKFQGKATMTADTSSNTAYLHLSSLTFEDTAVYYCNAEGYGSRHWYFDVWGAGTTVTVSS
VL: DIVMSQSPSSLAVSAGEKVTMSCKSSQSLLNSRTRKNYLAWYQQKPGQSPKLLIYWASTRQSGVPDRFTGSGSGTDFTLTISSVQAEDLAVYYCKQSYNLLTFGAGTKLELK
notes: Murine monoclonal antibody purified from hybridoma; also called WISE Loop 2 Mab (Ab-AA)
Regarding B6, the binding result in [3], in test [4], in [5], in test [6] and in test [2] was “binds” each time.

B7: Ab-AH (antibody, V domains shown)
VH: EVQLQQSGAELVRSGASVRLSCTASGFNIKDFYMHWLKQRPEQGLEWIGWIDPENGDTESAPKFQGKATMTADTSSNTAYLQLSSLTSEDTAVYCCNAEGYDNSHWYFDVWGAGTTVTVSS
VL: DIVMSQSPSSLAVSAGEKVTMSCKSSQSLLNSRTRKNYLAWYQQKPGQSPKLLIYWASTRKSGVPDRFIGSGSGTDFTLTISSVQAEDLAVYYCKQSYNLVTFGAGTKLELK
notes: Murine anti-WISE monoclonal antibody; also called WISE Loop 2 Mab (Ab-AH)
For the molecule B7, the binding result in [7], in test [8] and in [9] was “binds” throughout.

B8: Ab-AI (antibody, V domains shown)
VH: QVTLKESGPGILQPSQTLSLTCSFSGFSLTTSGMGVSWIRQPSGGSLEWLAHIFWDDDKRYNPSLTSRLTISKDASRNQVFLKISSVDTADAATYYCARGGDYYSTGFGFDYWGQGTLVTVSA
VL: DIVVSQAPSSLAVSVGEKIIMSCKSSQSLLHSSNQRNYLAWYQQKPGQSPKLLISWASIRESGVPDRFTGSGSGTDFTLTISSVKTEDLAVYYCHQYYSYSTFGAGTKLELK
notes: Murine anti-WISE monoclonal antibody; also called WISE Loop 2 Mab (Ab-AI)
Turning to B8, the binding result in test [10], in test [11] and in [12] was “binds” each time.

B9: Ab-AC (antibody, V domains shown)
VH: QVTLKESGPEILQPSQTLSLTCSFSGFSLTTSGMGVSWIRQPSGGSLEWLAHIFWDDDKRYNPSLTSRLTISKDAPRNQVFLKITSVDTADAATYYCARGGDYYSTGFGFDYWGQGTLVTVSA
VL: DIVVSQAPSSLAVSVGEKIIMSCKSSQSLLHSSNRRNYLAWYQQKPGQSPKLLISWASIRESGVPDRFTGSGSGTDFTLTISSVKTEDLAIYYCHQYYTYSTFGAGTKLELK
notes: Murine monoclonal antibody purified from hybridoma; also called WISE Loop 2 Mab (Ab-AC)
Regarding B9, the binding result in test [13], in test [14] and in test [15] was “binds” in each case.
